This note sets out measurements from the DeepSol protein solubility set.

This data set can be described thus: soluble on expression in E. coli; label from the status in PepcDB or PDB records.
Take “MANECRSLRNMETDGFQVVTEVVTHKLNHIPIFKGDFASLSPKVQRFVAEKAELMNPAGIYICDGSQKEYDDIVDKLVERGVLTPLKAYENNYLCRTDPRDVARVESKTWMVTKDKYDSVCHTPDGVRPIMGQWMSEEQFGVELDSRFPGCMAGRPMYVVPYSMGPIGGPLSKNGIELTDSPYVVLCMRTMTRMGTKVLEALGDNDFVRCIHSVGLPRPVKQKVINHWPCNPEKVMIAHRPKEREIWSFGSGYGGNSILGKKCFALRIACNIGRDEGWLAEHMLIMGVTNPEGEEKFIAAAFPSACGKTNLAMLTPTVPGWKVRVVGDDIAWMKFGADGRLYAINPEAGFFGVAPGTSHKTNAMAMESCRANTIFTNVAETADGEYFWEGLEKELKEAKGYTDEQLKHLEITNWLGERWHIGDEGKAAHPNSRFTAPAKQCPNIHPDWEAPQGVPIDAIVFGGRRPEGVPLVFESFSWEHGILVGALVKSETTAAAEFTGKNVMHDPMAMRPFMGYNYGKYLEHWIKLGKAPHKAPKIFHVNWFRETKDHKFLWPGFGDNIRVLDWILRRVAGGEEEIAIETAIGYVPKRGTINLDGLPRIDWNDLMSIPKDYWVEDVDESRHFLDTQVGSDLPQPIRDELDKLEKRVHAL”: the “soluble on expression in E. coli” value is given as “not soluble”.
Under “MANKKIDHREEAIELLKQDAKRILQLIKVQMDNLTLPQCPAYEEVLDTQMYGLSREINFATRLGLIEPEEGKKLISTLEKELSALHELSMSKK” stands “not soluble”.
Under “MANKKNKVKFNICNVHYAPITVADEGKVSFGTPVAMPGAVSISMDPTGEPESFYADGIEYYVINNNQGYDGDLELAMIPETFRTDILKEEADSNNVLVENANSETGSFALLFEFDGDIRKIRHVLYNCSASRPTIESKTNEEDKEVQTETLTIKARPMADGYVKAKTGDSTTDTVYNNWYKSVYLPNSLEHHHHHH” stands “soluble”.
Under “MANLATVERYVSAAAQRGADMVVFPEATMQGFGTGRLDRVAERIDGPFATRICQLARELNIVIVVGMFSPADTHDGKQRINNVALIAHPDSVREYRKIHTYDAFGFKESDTVRPGNQLVTFPVGDVTCGIAVCYDVRFPQQFIDLARLGAEVIVLPASWADGEGKLEQWRTLTAARALDSTSYIVACDQAVAEDERAPGAPTGVGHSAVVTPDGRRIAEAGTGEELFMVNVNRDLVRRTREAIPVLADAGYNQNGE” stands “not soluble”; under “MANTGCLSPGAFLSKVPEFFQTANEKHITVRLTAKRLIEHDPVEGNLEFDSTNHPDYDVSKKASEISVSSRSDREYPLLIRMSYGSHDKKTKCSTVVKASELDQFWQEYSSVFKGGMQNLIKKKKKKSKNGTISKTGKKNKVAKKN”, “not soluble”.
On to “MANVVAEGAYPYCRLTDQPLSVDEVLAAVSGPEQGGIVIFVGNVRDHNAGHDVTRLFYEAYPPMVIRTLMSIIGRCEDKAEGVRVAVAHRTGELQIGDAAVVIGASAPHRAEAFDAARMCIELLKQEVPIWKKEFSSTGAEWVGDRP”, for which the “soluble on expression in E. coli” value is given as “soluble”.
For “MAPAPRFSAEEQERLIICAAIKAIEESSLLDFSMSAIAKLAGLSMGSVYKFVQCKEDVLIALATRMYQERQSVFKKVLALPLTTPERIIATSLLDFSKVQMYNFDNQLESIVNTEAMMKRCSERWLTQMIACGERCQTMFQQFLQNAADSGELTSGSRDIEEINLGTWSLSVGYFQTVRLHQCWHNDLDENIDGINDEENEKNTLVLAADNAHIRTMKRLVNTYDWQQKISDDDIEKVCLHLADAALR”, the “soluble on expression in E. coli” value is “not soluble”.
Under “MAPLKRRKVSAPTGNENTPRSTRSIRHKREDPRGKMKPLATSTRTSSVNKKKKNDDDYENFYSGENTITTMKPVVFPKKPVIFEHGYGIEDDIEDEIDDEELDDEEYEESGNGNEDEVEEEVGVEEQEIENNFAYKKVKSEISCSPFLKEHSVHSVLTNNRAKTGTIDSKAGRTAYRKQKLREGTCCSQSNEATGDSTDRSSTSAGFDVFQHLQNRAVQKTMIEQLESAVRNQDVMEMGNVVKKGLENGTLSEIQIEEFCKHTTRPNFSILQFVQALRQSTEDEKESIQIAQMMMFKMQDPKDGNYTALAANVHTLTSKISKQLNAGCIVKRTLTMNHTISQADGFPTCNLTDIYNSELLIGGDAVSQLSNFYMVALKTMLEPSYKIWAFTYRPSCVRRVDRHFQELPQKVTTAIIEVAFDIVGVYLPVELSYGSIDREHEFIKTLGEGAELEVQRRRDERITVFKNAVEALGKAMNNLRTYHFDIAKGALFNCNKPSYCEHHLKWGQVRKFREQHQRMETSPEEVIRFATGQRNEHDVSAAGRSVKDSTH” stands “not soluble”; under “MAPPKRRSTRPTTPAAPTDPPIEEKKPDLLIAYDSDEKFVFSFSEEGLTAKECAEKMNGFSTKEQFLTEVHVDEMLRFLTKVIIGRKGEPLKCLCCDRLYVSSSGFLIHIKKCSTKNEQDRLTDAQNKYRNEPSKWLNVRKKDQIATLKTIVGTNYTCFMIGCSLNFGSLKDLIEHLATCIGADYYSYKNRPDDFRKLSKKAKQAYTLDAVTKNKGIVKCLVCDKEYTNHMSIIYHIDRCQVDKSLQPWKCWRCGFDATAADAQEHLIDCGRTAEMKMFDRLPESSSFGFPIPGSSVPSTSEPTTSAAAAPTKRKRVTGGAPRATPRKDGTTLYRFRKSTISRSSNGIVTKKDKKLYEDQCSKIFENWKQKSAEIAFCDTLSNIANSKWKLSILDSNDQFYRIFTRQSVTLVSGKTLGLQQTVPPGIRLDALKSREMLDEDDAPKATVGYCGAPINSINVAPGKTRDGSDVICVTTFANDTDLESDSSCVQFWKHKLGKKKKSHLELWFLIHLPLRGTILHATWLQKQHNDEMMTSLIGYVAFSTTIGQILIYKIDESRVPEAPDRGDNVHVIVADPDLTLRLPKSTDTPDDTFLNADVKMEGDDIVVLPTRIDESTVPLLKIAWSYHNGGATLAALTALGAIAIWNLDGGDLDMPRVNIEESWQSPPSDIAFWNIDHLVVGFREKIVKVISIETWDVMLEDNTAKNAGSRVHTDNRIVRSFFMFQSDHTAFPYPNATNLTYVHCDIDTMTMILVPTGNTHQLLTWDVAMCPAVGTLLSSGIDGRLVASATGRFLGNMRHSYFANRNVMALKRRRILKESQTMEEYLKEVKMEGSAEGSTSTSTTKISDDKINEPLEESITEHTEVCQKMWLDVQFDEIFEPTRPEFSCRDQRIESLNCVDGTTSRDWPVSFTGGEAGLLFAVSVKLHIEEMDL”, “not soluble”.
Under “MAPQMEKVSEELILPSSPTPQSLKCYKISHLDQLLLTCHIPFILFYPNPLDSNLDPAQTSQHLKQSLSKVLTHFYPLAGRINVNSSVDCNDSGVPFVEARVQAQLSQAIQNVVELEKLDQYLPSAAYPGGKIEVNEDVPLAVKISFFECGGTAIGVNLSHKIADVLSLATFLNAWTATCRGETEIVLPNFDLAARHFPPVDNTPSPELVPDENVVMKRFVFDKEKIGALRAQASSASEEKNFSRVQLVVAYIWKHVIDVTRAKYGAKNKFVVVQAVNLRSRMNPPLPHYAMGNIATLLFAAVDAEWDKDFPDLIGPLRTSLEKTEDDHNHELLKGMTCLYELEPQELLSFTSWCRLGFYDLDFGWGKPLSACTTTFPKRNAALLMDTRSGDGVEAWLPMAEDEMAMLPVELLSLVDSDFSK” stands “soluble”; under “MAPSAAVGNYGEVIDYLQRHIRREMERQDVPGLALALVDDQQLVWARGFGYADRQHRINASEHTAFHAGDLSKLLIASATLQLAERGQLSLDAPLQDTLREFYVRSRFHADQSEADRAITFRRLLSHQSGLPGEHLPPLFGERPNSLGQLPAKVSGVWLSNPPGTQVAHSNLGYELVGAAIERNTGKHFEQHMREHLLDPLQMTRSSFARNALPQAQRAHGYSGGGRPGSASDLPVNDLWSSPVDLSRFVRMLFANGRHKERQLLRKHSVEEMFRQQNAGNALDFDCQVGLAWFLSPCGSAPLEGGIRHYEYASATPGFSAHLILLPEQRLAAIVMSNADDSGSLTASLARQAASLMLQVKQGARRPAVQLEHHHHHH”, “not soluble”; under “MAPVLGLLENEAKVKSIIRNNNLLEKKFSSFQRQCRDLSRNHALLDSCCSQVKHSATAAEEMSVSDKDVKNHQKKLHSFLAQSTDQVNSTIDKMDFFCSKGNHSLPMEMSVLSITLPYEACIEKSAKKHETMVFSIDEVSSAVQHLENEKVDVEKRQSSTGKLIFQTEKEIMKLKEEIQVNTNLESNIIQLSLEKLSSVKDSSTSENVYKAKLEEEINEARQIYEDALKQDVISQESAMMTQQLESLNELCSDLSDLNKINLTSIEKFPDCNEVCELSDELQTLEKSEAENSESIINLEASLEDIKYQNKKVRKSFDQINQLENAYIVKKEVLTRKKSAIEDVKRQIAESKITLNKLKVTVRAVERSDTPENVESKKEEAFRRLVASSTELPGPESFQRDNVRNVEKSLRFKKWNQRTTSQSSFTSDSTRSIGPIGVHYPGIKLINKDAATPTEVIRKITSELNESATSEDSTFDDDTGTTQDESGLNAFFNSPVSKEQTSMRPQFSMIAHMEKYDTMQAKKNMDKLPDNVRRESEMEHISHNYGRPSEVNRPASVSSKRHDPAASISATSEESILSGTTQDESMLNDFFNPTGTDEKLNDVEFSMTAHVAEFDNRQKAKRAAEQIKKSSSKISGKKEESVADDKSSGNSYVAESEAGFSQGSEENESMDDEDLVAPDDGGLDQTIWDGDD”, “not soluble”.
On to “MAQEDVTAVATNGAGPVETHLVFTEFKQMLLVEAQKVGDAVTFYKSAFGAIESGHSLYPKRKLDQELPHVLSSELNLAGSSFVVCDVSSLPGFSTAKSEGSGVTFLLGTKDAEAAVAKAVDAGAVKVEVTEAEVELGFKGKVTDPFGVTWIFAEKKTVITDENKEV”, for which the “soluble on expression in E. coli” value is “soluble”.
Under “MAQFVYTMHRVGKVVPPKRHILKNISLSFFPGAKIGVLGLNGAGKSTLLRIMAGIDKDIEGEARPQPDIKIGYLPQEPQLNPEHTVRESIEEAVSEVVNALKRLDEVYALYADPDADFDKLAAEQGRLEEIIQAHDGHNLNVQLERAADALRLPDWDAKIANLSGGERRRVALCRLLLEKPDMLLLDEPTNHLDAESVAWLERFLHDFEGTVVAITHDRYFLDNVAGWILELDRGEGIPWEGNYSSWLEQKDQRLAQEASQEAARRKSIEKELEWVRQGTKGRQSKGKARLARFEELNSTEYQKRNETNELFIPPGPRLGDKVLEVSNLRKSYGDRLLIDDLSFSIPKGAIVGIIGPNGAGKSTLFRMISGQEQPDSGTITLGETVKLASVDQFRDSMDNSKTVWEEVSGGLDIMKIGNTEMPSRAYVGRFNFKGVDQGKRVGELSGGERGRLHLAKLLQVGGNMLLLDEPTNDLDIETLRALENALLEFPGCAMVISHDRWFLDRIATHILDYQDEGKVEFFEGNFTEYEEYKKRTLGADALEPKRIKYKRIAK” stands “soluble”; under “MAQHGALETLKDLAEKEVDDAARLLGEMRRGCQQAEEQLKMLIDYQNEYRSNLNTDMGNGIASNRWINYQQFIQTLEKAIEQHRLQLTQWTQKVDLALKSWREKKQRLQAWQTLQDRQTAAALLAENRMDQKKMDEFAQRAAMRKPE”, “not soluble”.
Regarding “MAQIDFRKKINWHRRYRSPQGVKTEHEILRIFESDRGRIINSPAIRRLQQKTQVFPLERNAAVRTRLTHSMEVQQVGRYIAKEILSRLKELKLLEAYGLDELTGPFESIVEMSCLMHDIGNPPFGHFGEAAINDWFRQRLHPEDAESQPLTDDRCSVAVLRLRDGEEPLNELRRKIRQDLCHFEGNAQGIRLVHTLMRMNLTWAQVGGILKYTRPAWWRGETPETHHYLMKKPGYYLSEEAYIARLRKELNLALYSRFPLTWIMEAADDISYCVADLEDAVEKRIFTVEQLYHHLHEAWGQHEKGSLFSLVVENAWEKSRSNSLSRSTEDQFFMYLRVNTLNKLVPYAAQRFIDNLPAIFAGTFNHALLEDASECSDLLKLYKNVAVKHVFSHPDVEQLELQGYRVISGLLEIYRPLLSLSLSDFTELVEKERVKRSPIESRLFHKLSTRHRLAYVEAVSKLPSDSPEFPLWEYYYRCRLLQDYISGMTDLYAWDEYRRLMAVEQ”, the “soluble on expression in E. coli” value is “not soluble”.
